Experimental data published in patent US20200024330A1.

Columns and labels:
Experiment in all cases: cell-based or functional assay
[1] = target: HIV-1 92RW020 envelope glycoprotein (Env) (HIV-1)
[2] = target: HIV-1 Env of isolate MGRM-D-008 (HIV-1)
[3] = target: HIV-1 Env of isolate MGRM-D-013 (clade D) (HIV-1)
[4] = target: HIV-1 Env of isolate MGRM-G-014 (subtype G) (HIV-1)
[5] = target: HIV-1 Env of isolate MGRM-G-024 (clade G pseudovirus) (HIV-1)
[6] = target: HIV-1 Env of isolate MGRM-G-027 (clade G pseudovirus) (HIV-1)
[7] = target: HIV-1 Env of pseudovirus NL43, clade B (HIV-1)
[8] = target: HIV-1 JRCSF envelope glycoprotein (Env) on pseudovirus (HIV-1) (UniProt P20871)
[9] = target: HIV-1 MGRM-F1-014 Env (pseudovirus) (HIV-1)
[10] = target: HIV-1 93IN905 Env (pseudovirus) (HIV-1)
[11] = target: HIV-1 APV_13 Env (pseudovirus) (HIV-1)
[12] = target: HIV-1 Env of isolate 97ZA012 (pseudovirus) (HIV-1 isolate 97ZA012, subtype C)
[13] = target: HIV-1 Env of isolate 98IN022 (pseudovirus) (HIV-1 isolate 98IN022, subtype C)
[14] = target: HIV-1 Env of isolate MG RM-AG-011 (HIV-1)
[15] = target: HIV-1 Env of isolate MG RM-D-014 (subtype D) (HIV-1)
[16] = target: HIV-1 Env of isolate MG RM-D-019 (subtype D) (HIV-1)
[17] = target: HIV-1 Env of isolate MGRM-C-026 (pseudovirus) (HIV-1 isolate MGRM-C-026, subtype C)
[18] = target: HIV-1 Env of isolate MGRM-F1-010 (subtype F) (HIV-1)
[19] = target: HIV-1 Env of isolate MGRM-F1-017 (HIV-1)
[20] = target: HIV-1 QH0692.42 Env (pseudovirus) (HIV-1)
[21] = target: HIV-1 Env of isolate 92UG037 (HIV-1)
[22] = target: HIV-1 Env of isolate 93TH305 (pseudovirus) (HIV-1 isolate 93TH305, subtype B)
[23] = target: HIV-1 Env of isolate CAAN.A2 (HIV-1)
[24] = target: HIV-1 Env of isolate MGRM-A-010 (clade A), on pseudovirus (HIV-1)
[25] = target: HIV-1 Env of isolate MGRM-A-013 (clade A), on pseudovirus (HIV-1)
[26] = target: HIV-1 Env of isolate MGRM-AG-012 (CRF_AG), on pseudovirus (HIV-1)
[27] = target: HIV-1 Env of isolate MGRM-C-012 (HIV-1)
[28] = target: HIV-1 Env of isolate MGRM-Chronic-B-001 (HIV-1)
[29] = target: HIV-1 Env of isolate MGRM-Chronic-B-003 (HIV-1)
[30] = target: HIV-1 Env of isolate MGRM-Chronic-B-004 (HIV-1)
[31] = target: HIV-1 Env of isolate MGRM-Chronic-B-008 (HIV-1)
[32] = target: HIV-1 Env of isolate MGRM-D-021 (HIV-1)
[33] = target: HIV-1 Env of isolate MGRM-D-022 (HIV-1)
[34] = target: HIV-1 Env of isolate MGRM-D-029 (subtype D), on pseudovirus (HIV-1)
[35] = target: HIV-1 Env of isolate MGRM-F1-004 (subtype F), on pseudovirus (HIV-1)
[36] = target: HIV-1 Env of isolate MGRM-F1-015 (subtype F), on pseudovirus (HIV-1)
[37] = target: HIV-1 Env of isolate MGRM-F1-017 (subtype F), on pseudovirus (HIV-1)
[38] = target: HIV-1 Env of isolate MGRM-F1-021 (subtype F), on pseudovirus (HIV-1)
[39] = target: HIV-1 Env of isolate SC422661.8 (HIV-1)

Row | Substance | IC50 (ug/ml), neutralizing activity [8] [µg/mL] | IC50, pseudovirus neutralization [10] [µg/mL] | IC50, pseudovirus neutralization [11] [µg/mL] | IC50 (µg/mL) neutralization [12] [µg/mL] | IC50 (µg/mL) neutralization [13] [µg/mL] | neutralization IC50 [14] [µg/mL] | IC50 (µg/mL), pseudovirus neutralization [15] [µg/mL] | IC50 (µg/mL), pseudovirus neutralization [16] [µg/mL] | IC50 (µg/mL) neutralization [17] [µg/mL] | IC50 (µg/mL), pseudovirus neutralization [18] [µg/mL] | IC50 [19] [µg/mL] | IC50, pseudovirus neutralization [20] [µg/mL] | further results
1 | 1496_C09 (PG9) (TCN-109) (antibody) | 0.0048 |  |  |  |  |  |  |  |  |  |  |  | IC50 (µg/ml), pseudovirus neutralization [1]: 0.08 µg/mL; IC50 neutralization [1]: 0.161 µg/mL; IC50 (µg/mL), pseudovirus neutralization [2]: 11.5 µg/mL; IC50 (µg/ml), pseudovirus neutralization [3]: 0.06 µg/mL; neutralization IC50 [4]: 16.5 µg/mL; IC50 (µg/ml), pseudovirus neutralization [5]: 0.07 µg/mL; IC50 (µg/ml), pseudovirus neutralization [6]: 0.01 µg/mL; IC50 (µg/ml), pseudovirus neutralization [7]: 0.32 µg/mL; IC50 neutralization [8]: 0.0048 µg/mL; IC80, neutralization [8]: 0.0181 µg/mL; IC90, neutralization [8]: 0.0391 µg/mL; IC95, neutralization [8]: 0.0798 µg/mL; IC50 (µg/ml), pseudovirus neutralization [9]: 0.01 µg/mL
2 | 4838_L06 (PGT-121) (antibody) |  | 0.005 | 0.251 | 0.002 | 0.007 | > 50 | 0.009 | > 50 | 0.002 | 0.016 | 16.9 | 0.823 | neutralization IC80 [10]: 0.0302 µg/mL; neutralization IC90 [10]: 0.0645 µg/mL
3 | 4858_P08 (PGT-123) (antibody) | 0.0423 | 0.004 | 0.138 | 0.002 | 0.011 | > 50 | 0.009 | > 50 | 0.001 | 0.016 | > 50 | 0.158 | IC50, pseudovirus neutralization [8]: 0.0423 µg/mL; IC80, pseudovirus neutralization [8]: 0.143 µg/mL; IC90 (pseudovirus neutralization) [8]: 0.289 µg/mL; IC95, pseudovirus neutralization [8]: 0.547 µg/mL
4 | 4877_D15 (PGT-122) (antibody) | 0.0727 | 0.013 | 0.778 | 0.004 | 0.032 | > 50 | 0.012 | > 50 | 0.006 | 0.024 | > 50 | 0.493 | 
5 | 5114_A19 (PGT-128) (antibody) |  |  |  |  |  |  |  |  |  |  |  |  | neutralization IC50 [21]: 0.006 µg/mL; IC50 (µg/mL) neutralization [22]: 0.006 µg/mL; IC50 [23]: 1.48 µg/mL; IC50, single-round pseudovirus neutralization [24]: 0.005 µg/mL; IC50, single-round pseudovirus neutralization [25]: 0.008 µg/mL; IC50, single-round pseudovirus neutralization [26]: > 50 µg/mL; IC50 [27]: 0.058 µg/mL; IC50 [28]: > 50 µg/mL; IC50 [29]: 0.007 µg/mL; IC50 [30]: 0.009 µg/mL; IC50 [31]: 0.143 µg/mL; IC50 [2]: 0.033 µg/mL; IC50 [32]: 0.014 µg/mL; IC50 [33]: > 50 µg/mL; IC50, pseudovirus neutralization [34]: > 50 µg/mL; IC50, pseudovirus neutralization [35]: 0.027 µg/mL; IC50, pseudovirus neutralization [36]: > 50 µg/mL; IC50, pseudovirus neutralization [37]: 11.7 µg/mL; IC50, pseudovirus neutralization [38]: > 50 µg/mL; IC50 [39]: 1.58 µg/mL
6 | 5123_A06 (PGT-125) (antibody) | 0.006 | 0.009 | 0.007 | 2.46 | 22.1 | > 50 | > 50 | 0.049 | 0.005 | > 50 | > 50 | 0.048 | neutralization IC50 [8]: 0.006 µg/mL; neutralization IC80 [8]: 0.0196 µg/mL; neutralization IC90 [8]: 0.0392 µg/mL; neutralization IC95 [8]: 0.0741 µg/mL
7 | 5136_H01 (PGT-131) (antibody) |  |  |  |  |  |  |  |  |  |  |  |  | neutralization IC50 [21]: 0.048 µg/mL; IC50 (µg/mL) neutralization [22]: 0.016 µg/mL; IC50 [23]: > 50 µg/mL; IC50, single-round pseudovirus neutralization [24]: 0.01 µg/mL; IC50, single-round pseudovirus neutralization [25]: > 50 µg/mL; IC50, single-round pseudovirus neutralization [26]: > 50 µg/mL; IC50 [27]: > 50 µg/mL; IC50 [28]: > 50 µg/mL; IC50 [29]: > 50 µg/mL; IC50 [30]: 0.04 µg/mL; IC50 [31]: > 50 µg/mL; IC50 [2]: > 50 µg/mL; IC50 [32]: 0.106 µg/mL; IC50 [33]: > 50 µg/mL; IC50, pseudovirus neutralization [34]: > 50 µg/mL; IC50, pseudovirus neutralization [35]: 0.114 µg/mL; IC50, pseudovirus neutralization [36]: > 50 µg/mL; IC50, pseudovirus neutralization [37]: > 50 µg/mL; IC50, pseudovirus neutralization [38]: > 50 µg/mL; IC50 [39]: > 50 µg/mL
8 | 5141_B17 (PGT-126) (antibody) | 0.0061 | 0.015 | 0.012 | 0.042 | 0.279 | 24.5 | 0.03 | > 50 | 0.007 | > 50 | > 50 | 0.048 | IC50 [10]: 0.0194 µg/mL; IC80 [10]: 0.0676 µg/mL; IC90 [10]: 0.14 µg/mL; IC95 [10]: 0.275 µg/mL
9 | 5145_B14 (PGT-127) (antibody) |  | 0.024 | 0.026 | > 50 | 19.2 | > 50 | 0.393 | > 50 | 0.014 | > 50 | > 50 | 0.129 | 
